Publication PMC10130221

Key:
Assay in all cases: filter binding
[1] = tested on: TrmB D144A (Escherichia coli); conditions: none (in vitro transcribed), becomes m7G46 during incubation with SAM, TAKEM4: 50 mM Tris-HCl pH 7.5, 70 mM NH4Cl, 30 mM KCl, 1 mM EDTA, 4 mM MgCl2, filter binding 20 nM tRNA, 10 min (temperature not given in the material) …
[2] = tested on: TrmB R155A (Escherichia coli); conditions: max. about 30% bound, none (in vitro transcribed), becomes m7G46 during incubation with SAM, TAKEM4: 50 mM Tris-HCl pH 7.5, 70 mM NH4Cl, 30 mM KCl, 1 mM EDTA, 4 mM MgCl2, filter binding 20 nM tRNA, 10 min (temperature not given in the material) …
[3] = tested on: TrmB R26A (Escherichia coli); conditions: none (in vitro transcribed), becomes m7G46 during incubation with SAM, TAKEM4: 50 mM Tris-HCl pH 7.5, 70 mM NH4Cl, 30 mM KCl, 1 mM EDTA, 4 mM MgCl2, filter binding 20 nM tRNA, 10 min (temperature not given in the material) …
[4] = tested on: TrmB T217A (Escherichia coli); conditions: none (in vitro transcribed), becomes m7G46 during incubation with SAM, TAKEM4: 50 mM Tris-HCl pH 7.5, 70 mM NH4Cl, 30 mM KCl, 1 mM EDTA, 4 mM MgCl2, filter binding 20 nM tRNA, 10 min (temperature not given in the material) …
[5] = tested on: TrmB WT (Escherichia coli); conditions: none (in vitro transcribed), becomes m7G46 during incubation with SAM, TAKEM4: 50 mM Tris-HCl pH 7.5, 70 mM NH4Cl, 30 mM KCl, 1 mM EDTA, 4 mM MgCl2, filter binding 20 nM tRNA, 10 min (temperature not given in the material) …

[3H]tRNAPhe (unmodified transcript)
Kd ([1]; 50 uM SAM): 0.8 µM | Kd ([1]; no SAM): 2.5 µM | Kd ([2]; 50 uM SAM): 5.8 µM | Kd ([2]; no SAM): 10 µM | Kd ([3]; 50 uM SAM): 5.1 µM | Kd ([3]; no SAM, max. about 20% bound): 6.4 µM | Kd ([4]; 50 uM SAM): 2.6 µM | Kd ([4]; no SAM): 5.4 µM | Kd ([5]; 50 uM SAM, tRNA becomes m7G46 product in 10 min): 2.1 µM | Kd ([5]; no SAM): 6.6 µM
